Results on seven molecules are retold here after publication PMC9638919, “DAZL regulates proliferation of human primordial germ cells by direct binding to precursor miRNAs and enhances DICER processing activity”.

For data set [1], the target named is T1, GST-DAZL (UniProt Q92904 1-295).
T1 sequence: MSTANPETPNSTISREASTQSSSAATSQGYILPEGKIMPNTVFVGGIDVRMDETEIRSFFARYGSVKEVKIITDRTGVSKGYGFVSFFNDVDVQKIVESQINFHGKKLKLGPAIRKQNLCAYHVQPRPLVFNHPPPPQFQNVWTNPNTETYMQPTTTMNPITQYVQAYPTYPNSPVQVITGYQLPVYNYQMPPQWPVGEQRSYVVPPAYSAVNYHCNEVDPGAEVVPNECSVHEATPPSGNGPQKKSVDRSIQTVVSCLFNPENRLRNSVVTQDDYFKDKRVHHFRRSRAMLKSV
Description: EMSA; 10 mM HEPES pH 7.4, 50 mM KCl, 1 mM EDTA, 0.05% Triton X-100, 5% glycerol, 0.01 mg/ml BSA, 1 mM DTT; 10 nM FAM-RNA, 40 min; temperature not stated. Particulars: protein: recombinant; tags: N-terminal GST; label: 5'-FAM.

The target of data set [2] is T1, GST-DAZL. Description: EMSA; only slightly affected vs wild type; 10 mM HEPES pH 7.4, 50 mM KCl, 1 mM EDTA, 0.05% Triton X-100, 5% glycerol, 0.01 mg/ml BSA, 1 mM DTT; 10 nM FAM-RNA, 40 min; temperature not stated. The following applies: protein: recombinant; tags: N-terminal GST; label: 5'-FAM.
Data set [3] has as its target T1, GST-DAZL. Description: EMSA; 5000 nM DAZL; 10 mM HEPES pH 7.4, 50 mM KCl, 1 mM EDTA, 0.05% Triton X-100, 5% glycerol, 0.01 mg/ml BSA, 1 mM DTT; 10 nM FAM-RNA, 40 min; temperature not stated. Particulars: protein: recombinant; tags: N-terminal GST; label: 5'-FAM; hairpin.
Data set [4] has as its target T1, GST-DAZL. Description: EMSA; 3000 nM DAZL; 10 mM HEPES pH 7.4, 50 mM KCl, 1 mM EDTA, 0.05% Triton X-100, 5% glycerol, 0.01 mg/ml BSA, 1 mM DTT; 10 nM FAM-RNA, 40 min; temperature not stated. The following applies: protein: recombinant; tags: N-terminal GST; label: 5'-FAM; hairpin.
The target in data set [5] is T2, GST-RRM (DAZL RRM domain) (UniProt Q92904 40-115).
T2 sequence: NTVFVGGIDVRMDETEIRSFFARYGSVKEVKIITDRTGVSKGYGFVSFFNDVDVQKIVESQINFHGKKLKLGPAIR
Description: EMSA; 10 mM HEPES pH 7.4, 50 mM KCl, 1 mM EDTA, 0.05% Triton X-100, 5% glycerol, 0.01 mg/ml BSA, 1 mM DTT; 10 nM FAM-RNA, 40 min; temperature not stated. Particulars: protein: recombinant; tags: N-terminal GST; label: 5'-FAM; hairpin.

B1: pre-let-7c loop (ssRNA)
RNA: UAGAGUUACACCCUGGGAGUUAA
As for B1, in the data set with GST-DAZL [1], the binding result is reported as “binds”.

B2: pre-let-7c loop, first G to A in both GUU (ssRNA)
RNA: UAGAAUUACACCCUGGGAAUUAA
B2: in the data set with GST-DAZL [2], the binding result was “binds”.

B3: pre-miR-199a (structured_RNA)
RNA: GCCAACCCAGUGUUCAGACUACCUGUUCAGGAGGCUCUCAAUGUGUACAGUAGUCUGCACAUUGGUUAGGC
Regarding B3, the binding signal with GST-DAZL [3] was 22.1 % shifted; with GST-DAZL [4] it was 18.1 % shifted.

B4: pre-let-7c loop, second U to A in both GUU (ssRNA)
RNA: UAGAGAUACACCCUGGGAGAUAA
On to B4, for which, in the data set with GST-DAZL [2], the binding result is reported as “binds”.

B5: pre-let-7c (structured_RNA)
RNA: GCAUCCGGGUUGAGGUAGUAGGUUGUAUGGUUUAGAGUUACACCCUGGGAGUUAACUGUACAACCUUCUAGCUUUCCUUGGAGC
Consider B5, for which the binding signal with GST-DAZL [3] came out at 41.3 % shifted; with GST-DAZL [4], 37.4 % shifted.

B6: pre-miR-185 (structured_RNA)
RNA: AGGGGGCGAGGGAUUGGAGAGAAAGGCAGUUCCUGAUGGUCCCCUCCCCAGGGGCUGGCUUUCCUCUGGUCCUUCCCUCCCA
For B6, in data set [5], the binding result is “no binding”.

B7: pre-let-7i (structured_RNA)
RNA: CUGGCUGAGGUAGUAGUUUGUGCUGUUGGUCGGGUUGUGACAUUGCCCGCUGUGGAGAUAACUGCGCAAGCUACUGCCUUGCUA
With B7, the binding signal with GST-DAZL [3] amounted to 50.9 % shifted; with GST-DAZL [4] it was 37 % shifted.
